Measured values from PMC2064262 (The Journal of Cell Biology, 2006).

Target: N-syndecan ectodomain IgG fusion protein (UniProt P33671 45-387, glycosylated (proteoglycan fragment with heparan sulfate chains))
Assay: ELISA

Chain of N-syndecan ectodomain IgG fusion protein (P33671 45-387): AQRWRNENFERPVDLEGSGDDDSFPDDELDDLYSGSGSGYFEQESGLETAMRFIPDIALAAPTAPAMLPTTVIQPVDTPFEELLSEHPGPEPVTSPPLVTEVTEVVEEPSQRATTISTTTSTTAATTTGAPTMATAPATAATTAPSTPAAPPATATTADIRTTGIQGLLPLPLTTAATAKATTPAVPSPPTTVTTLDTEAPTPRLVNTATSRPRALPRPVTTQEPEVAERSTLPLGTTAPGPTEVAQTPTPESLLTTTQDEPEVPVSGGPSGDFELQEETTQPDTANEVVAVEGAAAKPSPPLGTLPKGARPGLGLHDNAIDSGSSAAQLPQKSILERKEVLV

Row | Kd | Binder
1 | 12 nM | heparin-binding growth-associated molecule (HB-GAM; pleiotrophin) (ligand, UniProt P63090 33-168, looked up) GKKEKPEKKVKKSDCGEWQWSVCVPTSGDCGLGTREGTRTGAECKQTMKTQRCKIPCNWKKQFGAECKYQFQAWGECDLNTALKTRTGSLKRALHNADCQKTVTISKPCGKLTKPKPQAESKKKKKEGKKQEKMLD
2 | 15 nM | heparin-binding EGF-like growth factor (HB-EGF), human recombinant (ligand, UniProt Q99075 63-148, looked up) DLQEADLDLLRVTLSSKPQALATPNKEEHGKRKKKGKGLGKKRDPCLRKYKDFCIHGECKYVKELRAPSCICHPGYHGERCHGLSL
